In assay [1] the target is SmBiT-CHIP-FLAG. Kind of assay: split reporter.
In assay [2] the target is Hsp70 (Homo sapiens). The note with it: cited from earlier work.

Chain of SmBiT-CHIP-FLAG (Q9UNE7 whole entry): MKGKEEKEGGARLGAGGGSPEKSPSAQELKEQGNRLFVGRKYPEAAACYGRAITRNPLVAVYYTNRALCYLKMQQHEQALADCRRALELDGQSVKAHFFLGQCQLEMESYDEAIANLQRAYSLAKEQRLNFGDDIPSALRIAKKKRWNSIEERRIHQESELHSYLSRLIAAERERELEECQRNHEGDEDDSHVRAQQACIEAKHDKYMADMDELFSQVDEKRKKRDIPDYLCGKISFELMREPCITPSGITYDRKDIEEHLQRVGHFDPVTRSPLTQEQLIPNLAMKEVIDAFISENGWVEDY
Chain of CHIP TPR (Q9UNE7 21-154): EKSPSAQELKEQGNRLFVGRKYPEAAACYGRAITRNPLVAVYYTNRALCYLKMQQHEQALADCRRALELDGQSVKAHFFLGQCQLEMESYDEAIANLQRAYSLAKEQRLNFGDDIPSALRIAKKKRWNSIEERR

In assay [1], “R9-LWWPD (peptide; other documents disagree on this pair)” yielded an IC50 of 2.6 µM and a percent reduction of luminescence at 10 μM of 40%.

Consider CHIP TPR (from UniProt Q9UNE7), for which, in assay [2], the Kd was 0.6 µM.

What is called IC50 is the concentration needed to halve the response being measured. The low end stands for higher potency, the high end for lower potency. Broadly, the Kd is the equilibrium constant for the complex coming apart.

Source of the values: PMC8054679.
